According to CN114641502A (SHANGHAI YINGMING BIOTECHNOLOGY CO LTD, dated 2022):

How the values were obtained:
[1] = molecular target: T1, 人TIGIT (full length, on cells) (human, UniProt Q495A1 22-244); assay: cell-based or functional assay
T1 sequence (looked up): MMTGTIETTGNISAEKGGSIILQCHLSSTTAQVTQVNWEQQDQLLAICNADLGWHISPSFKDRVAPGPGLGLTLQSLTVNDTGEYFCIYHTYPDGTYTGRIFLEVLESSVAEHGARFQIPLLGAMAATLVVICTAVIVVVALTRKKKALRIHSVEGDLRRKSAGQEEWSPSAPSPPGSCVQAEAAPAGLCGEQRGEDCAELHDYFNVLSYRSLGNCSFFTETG

[2] = molecular target: T1, 人TIGIT (full length, on cells); assay: flow cytometry on 293F cells expressing human TIGIT
[3] = molecular target: T2, 小鼠TIGIT (full length, on cells) (mouse, UniProt P86176 29-249); assay: flow cytometry on Flp-In CHO cells expressing mouse TIGIT
T2 construct: whole, on cells; also called mouse TIGIT; W364-FlpinCHO.mpro1.FL
T2 sequence (looked up): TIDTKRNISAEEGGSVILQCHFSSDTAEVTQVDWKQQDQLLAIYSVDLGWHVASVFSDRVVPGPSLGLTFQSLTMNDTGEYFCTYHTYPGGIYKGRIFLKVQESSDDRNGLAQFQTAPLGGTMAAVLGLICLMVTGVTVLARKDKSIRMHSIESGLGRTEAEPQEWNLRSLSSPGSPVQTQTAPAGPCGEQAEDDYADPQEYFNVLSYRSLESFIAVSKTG

[4] = molecular target: T3, 食蟹猴TIGIT (full length, on cells) (cynomolgus monkey, UniProt A0A7N9I9V4 89-312); assay: flow cytometry on Flp-In CHO cells expressing cynomolgus TIGIT
T3 construct: whole, on cells; also called cynomolgus TIGIT; W364-FlpinCHO.cynopro1.FL

[5] = molecular target: T1, 人TIGIT (full length, on cells); assay: flow cytometry affinity on CHOK1 cells over-expressing human TIGIT, quantitative beads
W364-hPro1.ECD.His = molecular target: T4, W364-hPro1.ECD.His (human, UniProt Q495A1 22-141); assay: SPR (Biacore 8K), antibody captured by anti-human IgG Fc, TIGIT ECD as analyte, 1:1 model
T4 construct: extracellular domain; Analyte in the SPR assay; 20 kDa used for molar concentration; also called W364-hPro1.ECD.his (Sino); 人TIGIT胞外结构域
T4 sequence (looked up): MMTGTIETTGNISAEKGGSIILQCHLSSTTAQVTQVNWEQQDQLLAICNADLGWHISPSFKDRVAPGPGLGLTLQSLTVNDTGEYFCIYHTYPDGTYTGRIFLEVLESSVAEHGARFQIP

[6] = molecular target: T1, 人TIGIT (full length, on cells); assay: flow cytometry competition on 293F cells expressing human TIGIT; competitor CD155.ECD-mFc at 2 μg/mL

T3 sequence (A0A7N9I9V4 entry or part of it): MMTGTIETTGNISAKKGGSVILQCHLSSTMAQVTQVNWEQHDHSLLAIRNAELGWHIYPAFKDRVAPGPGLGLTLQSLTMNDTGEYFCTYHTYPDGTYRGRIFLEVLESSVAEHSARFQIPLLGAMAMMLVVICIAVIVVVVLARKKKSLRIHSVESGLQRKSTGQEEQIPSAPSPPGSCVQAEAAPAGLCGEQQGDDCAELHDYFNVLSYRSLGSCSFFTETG

ADCC EC50 (LDH release, PBMC effectors) [1]: 0.0019 nM | NFAT-荧光素酶报告基因 EC50 [1]: 0.92 nM | EC50 [2]: 0.17 nM | EC50 [3]: 0.14 nM | EC50 [4]: 0.05 nM | Kd [5]: 0.027 nM | Kd (W364-hPro1.ECD.His): 0.75 nM | IC50 [6]: 0.14 nM
B1: W3645-2.131.4-hIgG1L3 (antibody, V domains shown)
VH: QLQLQESGPGLVKPSETLSLTCAVSGGSITSSSYYWGWIRQPPGKGLEWIGSIFFSGITYYNPSLKSRVTVSVDTSKNQFSLKLSSVTAADTAIYYCARRGLGGILASGYFDYWGQGTLVTVSS
VL: QSALTQPASVSGSPGQSITISCTGTSNDVGGYNYVSWYQQHPGKAPRLLIFDVSNRRTGISNRFSGSKSGITASLTISGLQAEDEADYYCSSYTSISTLVVFGGGTKLTVL
notes: Fully human (OMT rat derived), human IgG1; also called WBP3645先导抗体; WBP3645最终先导抗体
